Data on one protein can be found in publication PMC2902421, “Molecular cloning and biochemical characterization of a novel erythrose reductase from Candida magnoliae JH110” (Microbial Cell Factories, 2010).

Type in all cases: biochemical, Entelexis paramagnoliae
Substrate in data set [1]: O=Cc1ccc([N+](=O)[O-])cc1
The experiment in a line: purified protein. As to conditions: NADPH in excess, pH 5.5 and 42 °C (given for D-erythrose).

Substrate in data set [2]: NC(=O)C1=CN([C@@H]2O[C@H](COP(=O)(O)OP(=O)(O)OC[C@H]3O[C@@H](n4cnc5c(N)ncnc54)[C@H](OP(=O)(O)O)[C@@H]3O)[C@@H](O)[C@H]2O)C=CC1
The experiment in a line: purified protein. To be noted: D-erythrose saturating, pH 5.5, 42 °C, varied: cofactor.

Substrate in data set [3]: NC(=O)c1ccc[n+]([C@@H]2O[C@H](COP(=O)(O)OP(=O)(O)OC[C@H]3O[C@@H](n4cnc5c(N)ncnc54)[C@H](OP(=O)(O)O)[C@@H]3O)[C@@H](O)[C@H]2O)c1
Nature of the data set: steady-state kinetics; reaction not stated. To be noted: co-substrate not given; NADP+-dependent erythritol oxidation stated as not observed; varied: cofactor. The source says:
steady-state kinetics; reaction not stated on CmER (C. magnoliae JH110 erythrose reductase; CmER2 in Table 2)

B1: CmER (C. magnoliae JH110 erythrose reductase; CmER2 in Table 2) (Entelexis paramagnoliae) (protein)
chain: MSSTYTLTRLSAPSMVLNSGSQIPAVGYGLWKQQGSEAKDSVRCAIESGYRHLDCATAYQNHKEVGQAIREAGVPRDELWITSKVWGTHFDNPEEGLDDILEELGVEYLDLLLLHLPVAFKRNPEDPKQLRGLPVDHDMKYADVWARMEKLPKSKVRNIGVSNLTVRALDELLQTAKVTPAVNQVEMHPNLPQKKLLDYCKSKGIVVQAYSPLAQGQHENPVVTDIADDLGVSPAQVVLSWGALRGTNILPKSSTPSRIRENLELIQLSDDHMRRIDALARR
notes: N-terminal GST fusion (pGEX-5X-3) in E. coli BL21 with chaperones, GST removed by Factor Xa
As usually defined, the Km is the substrate concentration at which the rate is half of its maximum. Broadly, the kcat is the maximal rate divided by the concentration of active sites. As a reminder, the kcat/Km is the second-order rate constant that governs catalysis at low substrate concentration. As for B1, in data set [1], the Km was determined as 0.17 ± 0.01 mM, the kcat turned out to be 1.4 ± 0.1 s⁻¹ and the kcat/Km was 8200 M⁻¹ s⁻¹. For the same protein, in data set [2], the Michaelis constant (Km) is reported as 0.016 ± 0.01 mM, the kcat turned out to be 48 ± 2.5 s⁻¹ and the catalytic efficiency (kcat/Km) was 3e+06 M⁻¹ s⁻¹. In addition, in data set [3], the Michaelis constant (Km) is recorded as 0.24 ± 0.04 mM, the kcat is 0.84 ± 0.06 s⁻¹ and the kcat/Km was 3500 M⁻¹ s⁻¹.
